Like-named read-outs stand apart in the source and are kept apart here.
How the values were obtained:
[1] = biological target: human TSH receptor (full length, wild type) expressed in CHO cells (human) (UniProt P16473); experiment: cell-based or functional assay
[2] = biological target: human TSH receptor (full length, wild type) expressed in CHO cells (human) (UniProt P16473); experiment: cell-based or functional assay; remark: listed apart in the source
[3] = biological target: human TSHR (wild type, full length) expressed in CHO cells (human) (UniProt P16473); experiment: cell-based or functional assay
[4] = biological target: human TSH receptor (TSHR), wild type, expressed in CHO cells (human) (UniProt P16473); experiment: cell-based or functional assay
[5] = biological target: human TSH receptor (full length, wild type) expressed on CHO cells (human) (UniProt P16473); experiment: cell-based or functional assay
[6] = biological target: human TSH receptor (wild type), expressed on transfected CHO cells (human) (UniProt P16473); experiment: cell-based or functional assay
[7] = biological target: human TSHR (thyroid stimulating hormone receptor) expressed in transfected CHO cells (human) (UniProt P16473); experiment: cell-based or functional assay
[8] = biological target: human TSHR expressed in CHO cells (human) (UniProt P16473); experiment: cell-based or functional assay
[9] = biological target: TSHR260-alkaline phosphatase (TSHR260-AP) (human) (UniProt P05187); experiment: TSHR260-AP bridge ELISA, full length TSHR on wells; 100 µg/mL, diluted in HBD
[10] = biological target: TSHR260-alkaline phosphatase (TSHR260-AP) (human) (UniProt P05187); experiment: TSHR260-AP bridge ELISA, full length TSHR on wells; 1 µg/mL, diluted in assay buffer
[11] = biological target: TSHR260-alkaline phosphatase (TSHR260-AP) (human) (UniProt P05187); experiment: TSHR260-AP bridge ELISA, full length TSHR on wells; 0.01 µg/mL, diluted in assay buffer
[12] = biological target: TSHR260-AP (human); experiment: TSHR260-AP bridge ELISA (full length TSHR on wells, TSHR260-AP in solution); IgG 1 µg/mL diluted in HBD serum
[13] = biological target: TSHR260-AP (human); experiment: TSHR260-AP bridge ELISA (full length TSHR on wells, TSHR260-AP in solution); IgG 250 µg/mL diluted in HBD serum
[14] = biological target: TSHR260-AP (human); experiment: TSHR260-AP bridge ELISA (full length TSHR on wells, TSHR260-AP in solution); IgG 0.01 µg/mL diluted in HBD serum
[15] = biological target: TSHR260-AP (human); experiment: TSHR260-AP bridge ELISA (full length TSHR on wells, TSHR260-AP in solution); IgG 0.05 µg/mL diluted in HBD serum
[16] = biological target: TSHR260-AP (human); experiment: TSHR260-AP bridge ELISA (full length TSHR on wells, TSHR260-AP in solution); IgG 0.1 µg/mL diluted in assay buffer
[17] = biological target: TSHR260-AP (human); experiment: TSHR260-AP bridge ELISA (full length TSHR on wells, TSHR260-AP in solution); IgG 0.5 µg/mL diluted in assay buffer
[18] = biological target: TSHR260-AP (human); experiment: TSHR260-AP bridge ELISA (full length TSHR on wells, TSHR260-AP in solution); IgG 0.01 µg/mL diluted in assay buffer
[19] = biological target: TSHR260-AP (human); experiment: TSHR260-AP bridge ELISA (full length TSHR on wells, TSHR260-AP in solution); IgG 0.05 µg/mL diluted in assay buffer

Substance: 5B3 IgG (antibody)
- % Inhibition; T4 serum + 100 µg/mL 5B3 IgG [1]: 30.3%
- % Inhibition; T5 serum + 100 µg/mL 5B3 IgG [1]: 0%
- % Inhibition; T6 serum + 100 µg/mL 5B3 IgG [1]: 1.8%
- Cyclic AMP concentration; 100 µg/mL 5B3 IgG alone [1]: 2.6 pmol/mL
- Cyclic AMP concentration; HBD + 100 µg/mL 5B3 IgG [1]: 3 pmol/mL
- Cyclic AMP concentration; T4 serum + 100 µg/mL 5B3 IgG [1]: 55 pmol/mL
- Cyclic AMP concentration; T5 serum + 100 µg/mL 5B3 IgG [1]: 66.7 pmol/mL
- Cyclic AMP concentration; T6 serum + 100 µg/mL 5B3 IgG [1]: 81.5 pmol/mL
- % Inhibition; T7 serum + 100 µg/mL 5B3 IgG [2]: 0%
- % Inhibition; T8 serum + 100 µg/mL 5B3 IgG [2]: 10.9%
- % Inhibition; T9 serum + 100 µg/mL 5B3 IgG [2]: 0%
- Cyclic AMP concentration; 100 µg/mL 5B3 IgG alone [2]: 2.7 pmol/mL
- Cyclic AMP concentration; HBD + 100 µg/mL 5B3 IgG [2]: 4 pmol/mL
- Cyclic AMP concentration; T7 serum + 100 µg/mL 5B3 IgG [2]: 91.9 pmol/mL
- Cyclic AMP concentration; T8 serum + 100 µg/mL 5B3 IgG [2]: 76.3 pmol/mL
- Cyclic AMP concentration; T9 serum + 100 µg/mL 5B3 IgG [2]: 53.2 pmol/mL
- % Inhibition of T13 serum stimulation; 100 µg/mL 5B3 IgG [3]: 22.5%
- % Inhibition of T14 serum stimulation; 100 µg/mL 5B3 IgG [3]: 24.6%
- % Inhibition of T15 serum stimulation; 100 µg/mL 5B3 IgG [3]: 18.3%
- Cyclic AMP concentration; 100 µg/mL 5B3 IgG alone [3]: 4.1 pmol/mL
- Cyclic AMP concentration; HBD + 100 µg/mL 5B3 IgG [3]: 5.1 pmol/mL
- Cyclic AMP concentration; T13 serum + 100 µg/mL 5B3 IgG [3]: 37.6 pmol/mL
- Cyclic AMP concentration; T14 serum + 100 µg/mL 5B3 IgG [3]: 20.5 pmol/mL
- Cyclic AMP concentration; T15 serum + 100 µg/mL 5B3 IgG [3]: 41.9 pmol/mL
- Cyclic AMP concentration in hypotonic medium; 1 µg/mL 5B3 IgG + 3 ng/mL pTSH [4]: 71.9 pmol/mL
- Cyclic AMP concentration in hypotonic medium; 3 µg/mL 5B3 IgG + 3 ng/mL pTSH [4]: 75.7 pmol/mL
- Cyclic AMP concentration in hypotonic medium; 3 µg/mL 5B3 IgG alone [4]: 1.9 pmol/mL
- Cyclic AMP concentration in isotonic medium; 1 µg/mL 5B3 IgG + 3 ng/mL pTSH [4]: 39.5 pmol/mL
- Cyclic AMP concentration in isotonic medium; 3 µg/mL 5B3 IgG + 3 ng/mL pTSH [4]: 42.5 pmol/mL
- Cyclic AMP concentration in isotonic medium; 3 µg/mL 5B3 IgG alone [4]: 0.5 pmol/mL
- % Inhibition of M22 IgG (3 ng/mL) stimulation; 100 µg/ml 5B3 IgG [5]: 0%
- % Inhibition of pTSH (1 ng/mL) stimulation; 10 µg/mL 5B3 IgG [5]: 0%
- % Inhibition of pTSH (1 ng/mL) stimulation; 100 µg/mL 5B3 IgG [5]: 0%
- Cyclic AMP concentration in hypotonic medium; 100 µg/mL 5B3 IgG alone [5]: 2.2 pmol/mL
- Cyclic AMP concentration in isotonic medium; 100 µg/mL 5B3 IgG alone [5]: 1.4 pmol/mL
- Cyclic AMP concentration; 1 ng/mL pTSH + 10 µg/mL 5B3 IgG [5]: 80.7 pmol/mL
- Cyclic AMP concentration; 1 ng/mL pTSH + 100 µg/mL 5B3 IgG [5]: 79.3 pmol/mL
- Cyclic AMP concentration; 3 ng/mL M22 IgG + 100 µg/ml 5B3 IgG [5]: 41.8 pmol/mL
- Cyclic AMP concentration; 100 µg/mL 5B3 IgG alone (no TSH) [5]: 2.6 pmol/mL
- Cyclic AMP concentration; 5B3 IgG 100 µg/mL alone [5]: 1.2 pmol/mL
- % Inhibition (constitutive activity); 0.01 µg/mL 5B3 IgG [6]: 0%
- % Inhibition (constitutive activity); 0.1 µg/mL 5B3 IgG [6]: 0%
- % Inhibition (constitutive activity); 0.2 µg/mL 5B3 IgG [6]: 8.2%
- % Inhibition (constitutive activity); 1 µg/mL 5B3 IgG [6]: 6.3%
- % Inhibition (constitutive activity); 2 µg/mL 5B3 IgG [6]: 12.9%
- % Inhibition; 5B3 IgG 0.1 µg/mL + T11 [6]: 29.8%
- % Inhibition; 5B3 IgG 1 µg/mL + T11 [6]: 21.4%
- % Inhibition; 5B3 IgG 10 µg/mL + T11 [6]: 25.4%
- % Inhibition; 5B3 IgG 100 µg/mL + T11 [6]: 27%
- % Inhibition; pTSH 3 ng/mL + 10 µg/mL 5B3 [6]: 0%
- % Inhibition; pTSH 3 ng/mL + 100 µg/mL 5B3 [6]: 0.5%
- Cyclic AMP concentration; 100 µg/mL 5B3 alone [6]: 0.9 pmol/mL
- Cyclic AMP concentration; 5B3 IgG 0.1 µg/mL + T11 [6]: 17.7 pmol/mL
- Cyclic AMP concentration; 5B3 IgG 1 µg/mL + T11 [6]: 19.8 pmol/mL
- Cyclic AMP concentration; 5B3 IgG 10 µg/mL + T11 [6]: 18.8 pmol/mL
- Cyclic AMP concentration; 5B3 IgG 100 µg/mL + T11 [6]: 18.4 pmol/mL
- Cyclic AMP concentration; 5B3 IgG 100 µg/mL alone [6]: 1 pmol/mL
- Cyclic AMP concentration; pTSH 3 ng/mL + 10 µg/mL 5B3 [6]: 66.9 pmol/mL
- Cyclic AMP concentration; pTSH 3 ng/mL + 100 µg/mL 5B3 [6]: 63.9 pmol/mL
- Cyclic AMP production (constitutive activity); 0.01 µg/mL 5B3 IgG [6]: 58.2 pmol/mL
- Cyclic AMP production (constitutive activity); 0.1 µg/mL 5B3 IgG [6]: 58.8 pmol/mL
- Cyclic AMP production (constitutive activity); 0.2 µg/mL 5B3 IgG [6]: 53.3 pmol/mL
- Cyclic AMP production (constitutive activity); 1 µg/mL 5B3 IgG [6]: 54.4 pmol/mL
- Cyclic AMP production (constitutive activity); 2 µg/mL 5B3 IgG [6]: 50.6 pmol/mL
- % Inhibition; 3 ng/mL M22 IgG + 10 µg/mL 5B3 IgG [7]: 0%
- % Inhibition; 3 ng/mL M22 IgG + 100 µg/mL 5B3 IgG [7]: 0%
- Cyclic AMP concentration; 3 ng/mL M22 IgG + 10 µg/mL 5B3 IgG [7]: 44.7 pmol/mL
- Cyclic AMP concentration; 3 ng/mL M22 IgG + 100 µg/mL 5B3 IgG [7]: 51.3 pmol/mL
- Cyclic AMP concentration; 100 µg/mL 5B3 IgG [7]: 2.3 pmol/mL
- % Inhibition; 3 ng/mL pTSH + 10 µg/mL 5B3 IgG [8]: 7%
- % Inhibition; 3 ng/mL pTSH + 100 µg/mL 5B3 IgG [8]: 7%
- % Inhibition; 5B3 IgG 10 µg/mL + 3 ng/mL pTSH [8]: 0%
- % Inhibition; 5B3 IgG 100 µg/mL + 3 ng/mL pTSH [8]: 0%
- Mean absorbance at 405 nm (absorbance at 405 nm) [9]: 0.003
- Mean absorbance at 405 nm (absorbance at 405 nm) [10]: -0.004
- Mean absorbance at 405 nm (absorbance at 405 nm) [11]: 0.012
- Mean absorbance at 405 nm (absorbance at 405 nm) [12]: 0.049
- Mean absorbance at 405 nm (absorbance at 405 nm) [13]: 0.012
- Mean absorbance at 405 nm (absorbance at 405 nm) [14]: 0.027
- Mean absorbance at 405 nm (absorbance at 405 nm) [15]: -0.006
- Mean absorbance at 405 nm (absorbance at 405 nm) [16]: -0.013
- Mean absorbance at 405 nm (absorbance at 405 nm) [17]: -0.006
- Mean absorbance at 405 nm (absorbance at 405 nm) [18]: 0.012
- Mean absorbance at 405 nm (absorbance at 405 nm) [19]: -0.009
